Laboratory results from patent publication US4397951A, “Elastase-containing composition permitting elastase to be absorbed in increased amount” (Eisai Co., Ltd., priority 1981, dated 1983).
Like-named read-outs stand apart in the source and are kept apart here.

What was measured:
[1] = Serum elastase level, Tmax, Cmax, AUC after intraduodenal aqueous solution (Effect Example 3); type: in vivo, beagles; settings: intraduodenal 5 ml solution, 55.2 mg elastase (326 EL. U/mg)
Method: An aqueous control solution was prepared by adding 55.2 mg of elastase (326 EL. U/mg) alone to 5 ml of water.
Four beagles (weighing 10.5-14.0 kg) were divided into 2 aliquot groups, each being 2 subjects. […] The subjects were fasted overnight, and the abdomen was cut open along the median line under anesthesia in the following morning. Then, 5 ml of the respective sample and control solutions were introduced into duodendum using injection tube, followed by immediate suturing. 3 ml of the blood were respectively taken prior to the administration of the solutions, and at the elapsed times of 1, 2, 4, 6, 8, 10, 12 and 24 hours after the administration of the solutions. About 1 ml of serum was respectively separated by means of centrifuge.
Serum elastase levels were measured in accordance with "Enzyme-immunological method", as described in the effect example 1.

[2] = intraintestinal, rats, cited from earlier work
[3] = system: elastin; experiment: Elastase activity (decomposition of insoluble elastin); type: biochemical; settings: pH 8.8, 37°C, 30 min, elastin substrate
Method: In the present invention, the compounding ratio of pure elastase to sucrose fatty acid ester is specified in terms of weight ratio for convenience' sake. […] That is, at present available pure elastase has an activity of 340 elastase activity units (abbreviated as 340 EL. U) per mg measured by the method to be described hereinafter, and therefore the composition of the present invention is also defined as an elastase-containing composition containing 0.5 to 50 mg of sucrose fatty acid ester per 340 EL. U of elastase. More specifically, the composition of the present invention is an elastase-containing composition which contains 0.5 to 50 mg of sucrose fatty acid ester per 340 EL. U (measured by the measuring method described hereinafter) of elastase.
An elastase-containing sample is accurately weighed, and dissolved in a diluted Palitzsch buffer solution to make a 250 ml elastase enzyme solution. 1 ml of the elastase enzyme solution is added to 4 ml of a substrate solution, and incubation is conducted for 30 minutes at 37°±0.1° C. with shaking at 100 strokes/min. […]
The amount of soluble elastin produced per minute as a result of decomposition of insoluble elastin under the above-described measuring conditions is determined as an amount of tyrosine (μg) by which EL. […]

[4] = background statement; cited from earlier work
[5] = statement; cited from earlier work

Substance: Control Solution: 55.2 mg of elastase (326 EL. U/mg) alone in 5 ml of water
- AUC0-24hr [1]: 0.12584 µg·h/mL
- AUC0-24hr ([1]; 1440 min): 0.30718 µg·h/mL

Substance: ^131 I-elastase: 131I-labelled elastase dissolved in a physiological saline solution
- amount absorbed (blood vessel route plus lymphatic vessel route) ([2]; 1 mg in physiological saline): 0.15%
- amount absorbed (blood vessel route plus lymphatic vessel route) ([2]; 5 mg in physiological saline): 0.05%

Substance: elastase: decomposing enzyme for elastin, extracted from porcine pancreas; polypeptide having a molecular weight of 25,900
- elastase activity [3]: 340 EL. U per mg
- effect on elasticity of blood vessel [4]: increase elasticity of blood vessel
- effect on serum lipid level [4]: normalize serum lipid level
- stability to gastric acid [5]: unstable to gastric acid
